Data from patent US20240101668A1 (WUGEN, published 2024).
Substitutions are numbered along the chain they refer to.

B1: Polypeptide No. 125 (scFv, V domains shown)
VH: QVQLVQSGAEVKKPGASVKVSCKASGYSFTTYDIHWVRQAPGQGLEWMGWMNPNSGNTGYAQKFQGRVTMTRDTSTSTVYMELSSLRSEDTAVYYCATDHWVLGGFDYWGQGTLVTVSS
VL: DIQMTQSPSSLSASVGDRVTITCQASQDISNYLNWYQQKPGKAPKLLIYAASTLQSGVPSRFSGSGSGTDFTLTISSLQPEDFATYYCQQYSYLPVTFGQGTKLEIKR
notes: scFv
B2: Polypeptide No. 126 (scFv, V domains shown)
VH: EVQLLESGGGLVQPGGSLRLSCAASGFTFTTYDMHWVRQAPGKGLEWVAGINWNSVIIDYADSVKGRFTISRDNSKNTLYLQMNSLRAEDTAVYYCAKDLLYYYDSIGAFDIWGQGTMVTVSS
VL: DIQMTQSPSSLSASVGDRVTITCRASQSISTWLAWYQQKPGKAPKLLIYAASSLQSGVPSRFSGSGSGTDFTLTISSLQPEDFATYYCQQSDTLPLTFGGGTKVEIKR
notes: scFv
B3: Polypeptide No. 127 (scFv, V domains shown)
VH: QVQLVQSGAEVKKPGASVKVSCKASGYTFTNHHMHWVRQAPGQGLEWMGMINPSGGSTSYAQKFQGRVTMTRDTSTSTVYMELSSLRSEDTAVYYCARGRPVDIVATYYFDYWGQGTLVTVSS
VL: DIQMTQSPSSLSASVGDRVTITCQASQDIRNFLNWYQQKPGKAPKLLIYGASTLHSGVPSRFSGSGSGTDFTLTISSLQPEDFATYYCQQSYSTPLTFGGGTKVEIKR
notes: scFv
B4: Polypeptide No. 128 (scFv, V domains shown)
VH: QVQLVQSGAEVKKPGASVKVSCKASGYTFTNYYIHWVRQAPGQGLEWLGWTNPINGDTGSAQKFQGRVTMTRDTSTSTVYMELSSLRSEDTAVYYCAKEGQLAWADYYYYMDVWGKGTTVTVSS
VL: B2 VL with S28G, T31S, W32A, D92Y, T93S, L94T
notes: scFv
B5: Polypeptide No. 129 (scFv, V domains shown)
VH: EVQLVESGGGLVKPGGSLRLSCAASGFSLRNYWMHWVRQAPGKGLEWVSGISGSGGSTYYADSVKGRFTISRDDSKNTLYLQMNSLKTEDTAVYYCARDYTGVVDYWGQGTLVTVSS
VL: not shown
notes: scFv
B6: Polypeptide No. 130 (scFv, V domains shown)
VH: QVQLVQSGAEVKKPGASVKVSCKASGGTFSNYAISWVRQAPGQGLEWMAWMNPNSGNTGYAQKFQGRVTMTRDTSTSTVYMELSSLRSEDTAVYYCARDGFIGFGELFSAFDIWGQGTMVTVSS
VL: DIQMTQSPSSLSASVGDRVTITCRASQSIGTWLAWYQQKPGKAPKLLIYGATRLLSGVPSRFSGSGSGTDFTLTISSLQPEDFATYYCQQSYSTPPTFGQGTKLEIKR
notes: scFv
B7: Polypeptide No. 131 (scFv, V domains shown)
VH: QVQLVQSGAEVKKPGASVKVSCKASGGTFSNYAINWVRQAPGQGLEWMGWINPNSGGTDSAQKFQGRVTMTRDTSTSTVYMELSSLRSEDTAVYYCARDSSLALSYGGNSEYYYGMDVWGQGTTVTVSS
VL: B1 VL with N31D, Y32H, A50G, Y91A, S92Y, Y93S, L94F, V96W
notes: scFv
B8: Polypeptide No. 132 (scFv, V domains shown)
VH: EVQLLESGGGLVQPGGSLRLSCAASGFTFNNYGMHWVRQAPGKGLEWVSAISGSGGSTYYADSVKGRFTISRDNSKNTLYLQMNSLRAEDTAVYYCAREYMQQPHGGMDVWGQGTTVTVSS
VL: EIVMTQSPATLSVSPGERATLSCRASQSVNSYLAWYQQKPGQAPRLLIYGASTRATGIPARFSGSGSGTEFTLTISSLQSEDFAVYYCQQYGSSPLSFGGGTKVEIKR
notes: scFv
B9: Polypeptide No. 133 (scFv, V domains shown)
VH: EVQLLESGGGLVQPGGSLRLSCAASGFTFSSSWMHWVRQAPGKGLEWVSAISSSGDATYYADSVKGRFTISRDNSKNTLYLQMNSLRAEDTAVYYCAKFSDGGAGDSDYWGQGTLVTVSS
VL: B1 VL with Q24R, D28G, N31S, N34A, A50T, T53S, S92D, Y93N, V96I, K103R
notes: scFv
B10: Polypeptide No. 134 (scFv, V domains shown)
VH: QVQLVQSGAEVKKPGASVKVSCKASGYTFDSYLLHWVRQAPGQGLEWMGMINPSGAGTTYAQKFQGRVTMTRDTSTSTVYMELSSLRSEDTAVYYCAKEGSIAAGYYFDSWGQGTLVTVSS
VL: B2 VL with S30D, T31S, D92Y, L94T, L96I
notes: scFv
B11: Polypeptide No. 135 (scFv, V domains shown)
VH: QVQLVQSGAEVKKPGASVKVSCKASGYSFTTYGITWVRQAPGQGLEWMGWINPNSGNAGYAQKFQGRVTMTRDTSTSTVYMELSSLRSEDTAVYYCASDLAGYSSGYFDLWGRGTLVTVSS
VL: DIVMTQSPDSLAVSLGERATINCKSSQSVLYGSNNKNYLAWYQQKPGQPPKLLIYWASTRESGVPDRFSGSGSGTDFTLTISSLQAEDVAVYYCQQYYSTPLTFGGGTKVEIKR
notes: scFv
B12: Polypeptide No. 136 (scFv, V domains shown)
VH: QVQLVQSGAEVKKPGASVKVSCKASGDTLTNHFVHWVRQAPGQGLEWMGWMNPNSGNTGYAQKFQGRVTMTRDTSTSTVYMELSSLRSEDTAVYYCARDPQMGAVAGGFDYWGQGTLVTVSS
VL: B2 VL with S28R, S30G, T31N, D92Y, T93S, L94P, G100P, E105D
notes: scFv
B13: Polypeptide No. 137 (scFv, V domains shown)
VH: QVQLVQSGAEVKKPGASVKVSCKASGYTFTDYYIHWVRQAPGQGLEWMGMVNPSGGSANYAQKFQGRVTMTRDTSTSTVYMELSSLRSEDTAVYYCAKDSAWQEPYYFDYWGQGTLVTVSS
VL: B3 VL with Q24R, D28G, R30S, N31S, F32Y, N34A, G50D, T53N, H55D, S56T
notes: scFv
B14: Polypeptide No. 138 (scFv, V domains shown)
VH: QVQLVQSGAEVKKPGASVKVSCKASGYTFSSYDMHWVRQAPGQGLEWMGVINPGGGYTNYAQKFQGRVTMTRDTSTSTVYMELSSLRSEDTAVYYCARDEGWELLLDYWGQGTLVTVSS
VL: B8 VL with N30G, Y32N, Y91S, G92H, S94L, L96P, S97T, G100Q, K103R, V104L
notes: scFv
B15: Polypeptide No. 139 (scFv, V domains shown)
VH: QVQLVQSGAEVKKPGASVKVSCKASGYTLSDHDINWVRQAPGQGLEWMGWMNPSTGNTGYAQKFQGRVTMTRDTSTSTVYMELSSLRSEDTAVYYCERDQLRFGAWFDPWGQGTLVTVSS
VL: B2 VL with S28G, S30R, T31N, W32Y, D92Y, T93S, L94I
notes: scFv
B16: Polypeptide No. 140 (scFv, V domains shown)
VH: EVQLVESGGGLVKPGGSLRLSCAASGITVSSSWMHWVRQAPGKGLEWVSAIGTGGGTHYADSVKGRFTISRDDSKNTLYLQMNSLKTEDTAVYYCARDQGGQIDHWGQGTLVTVSS
VL: B2 VL with T31S, A50D, S53T, D92Y, T93S, L94I
notes: scFv
B17: Polypeptide No. 141 (scFv, V domains shown)
VH: QVQLVQSGAEVKKPGASVKVSCKASGGTFSSYAISWVRQAPGQGLEWMGVISPNGDTTVYAQKFQGRVTMTRDTSTSTVYMELSSLRSEDTAVYYCARDRGVAHSYYYGMDVWGQGTLVTVSS
VL: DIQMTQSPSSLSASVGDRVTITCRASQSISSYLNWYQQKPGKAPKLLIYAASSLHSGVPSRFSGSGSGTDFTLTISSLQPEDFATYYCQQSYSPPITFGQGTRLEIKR
notes: scFv
B18: Polypeptide No. 142 (scFv, V domains shown)
VH: EVQLLESGGGLVQPGGSLRLSCAASGFTFSSYWMHWVRQAPGKGLEWVAVISYDGSDKYYADSVKGRFTISRDNSKNTLYLQMNSLRAEDTAVYYCARGLGGTTGTADFDYWGQGTLVTVSS
VL: not shown
notes: scFv
B19: Polypeptide No. 143 (scFv, V domains shown)
VH: QVQLVQSGAEVKKPGASVKVSCKASGYTFTGYYMHWVRQAPGQGLEWMGWMNANSGNTGFAQKFQGRVTMTRDTSTSTVYMELSSLRSEDTAVYYCARDSSSWLSGGGWFDPWGQGTLVTVSS
VL: B6 VL with W32Y, A34S, G50A, T52S, R53S, L55Q, T94S, P96I
notes: scFv

How the values were obtained:
[1] = molecular target: T1, huCD33-G69-Fc recombinant protein (human, UniProt P20138 18-259); assay: BLI;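 further: biolayer interferometry: scFvs captured from periplasmic extracts on anti-V5-loaded streptavidin biosensors, antigen association for 2 min, buffer dissociation for 5 min, 1:1 Langmuir fit giving off-rate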
T1 construct: extracellular domain; also called CD33 R69G
Description: Discovered scFvs were analyzed for binding to huCD33-R69-His or huCD33-G69-Fc recombinant proteins (for anti-CD33 scFvs; for CLL-1 scFvs, huCLL1-K244-Avi-Tev-His or huCLL1-Q244-Avi-Tev-His were used; for FLT3, huFLT3-T227-His or huFLT3-M227-Fc were used) using BLI on a ForteBio Octet HTX instrument. Streptavidin-coated biosensors were loaded with biotinylated anti-V5 tag monoclonal antibody for 5 min and were then quenched and blocked with 20 μM amine-PEG2-Biotin for 5 min. scFvs were captured on biosensors from scFv clone periplasmic extracts. huCD33 (or huCLL-1, or huFLT3) proteins were then associated with the captured scFvs for 2 minutes, followed by dissociation with buffer (1×HBST [10 mM HEPES pH 7.4, 150 mM NaCl, 0.05% Tween-20], 1 g/L BSA) for 5 minutes. […] Data was fitted with 1:1 Langmuir equation and off-rate values were reported.

[2] = molecular target: T2, huCD33-R69 stably expressed on Jurkat cells (human, UniProt P20138 18-364); assay: FACS on cells;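 further: fixed Jurkat lines probed with myc-tagged scFv periplasmic extracts, anti-myc PE flow cytometry, PE MFI fold binned − <2, + 2–10, ++ 10–30, +++ >30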
T2 construct: whole, on cells; >200,000 receptors per cell; also called CD33 WT; CD33^ARG69
Description: (§1) Jurkat cells were engineered to stably express either the huCD33-R69 or huCD33-G69 variant at >200,000 receptors per cell. Parental, huCD33-R69, and huCD33-G69 Jurkat cell lines were stained with differing levels of CellTrace Violet Cell Proliferation Kit (ThermoFisher, cat. #C34557) to barcode each cell line. Barcoded Jurkat cell lines were fixed with paraformaldehyde and incubated with myc-labeled scFv periplasmic extracts and a secondary anti-myc PE-conjugated monoclonal antibody. Appropriate positive and negative controls were used. Stained cells were analyzed by flow cytometry (CytoFLEX, Beckman Coulter, Inc.) and binding was assessed by change in PE mean fluorescence intensity (MFI) of the barcoded cell populations.
(§2) Data is disclosed below in Table 16c, reporting FACS fold change over parental as (−), indicating <2 fold; (+), indicating 2-10 fold; (++), indicating 10-30 fold; and (+++), indicating >30 fold.

[3] = molecular target: T3, huCD33-G69 stably expressed on Jurkat cells (human, UniProt P20138 18-364); assay: FACS on cells;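 further: fixed Jurkat lines probed with myc-tagged scFv periplasmic extracts, anti-myc PE flow cytometry, PE MFI fold binned − <2, + 2–10, ++ 10–30, +++ >30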
T3 construct: whole, on cells; >200,000 receptors per cell; also called CD33 Mutant; CD33 R69G
T3 sequence (P20138 18-364 R69G): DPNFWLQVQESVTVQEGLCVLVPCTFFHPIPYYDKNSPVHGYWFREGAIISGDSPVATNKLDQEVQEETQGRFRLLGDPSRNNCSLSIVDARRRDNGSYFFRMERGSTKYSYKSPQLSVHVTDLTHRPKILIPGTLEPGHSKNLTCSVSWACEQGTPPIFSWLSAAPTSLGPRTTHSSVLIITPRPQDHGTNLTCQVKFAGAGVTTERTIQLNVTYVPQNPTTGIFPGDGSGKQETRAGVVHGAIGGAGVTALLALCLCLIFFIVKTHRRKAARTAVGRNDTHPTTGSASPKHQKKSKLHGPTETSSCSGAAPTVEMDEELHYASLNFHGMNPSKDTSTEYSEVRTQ
Description: as §1, §2

T1 sequence (P20138 18-259 R69G): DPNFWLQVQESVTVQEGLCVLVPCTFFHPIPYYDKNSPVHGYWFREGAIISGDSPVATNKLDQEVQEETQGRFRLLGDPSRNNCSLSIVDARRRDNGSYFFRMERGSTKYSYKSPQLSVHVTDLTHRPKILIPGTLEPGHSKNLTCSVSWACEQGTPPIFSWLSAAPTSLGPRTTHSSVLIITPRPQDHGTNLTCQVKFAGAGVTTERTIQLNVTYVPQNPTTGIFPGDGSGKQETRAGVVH
T2 sequence (P20138 18-364): as the sequence (P20138 18-364 R69G) above, with G52R counted along it

Binder	binding result [1]	FACS geometric mean fold change over Jurkat parental [2]	FACS geometric mean fold change over Jurkat parental [3]
B1	binds	> 30 fold	> 30 fold
B2	binds	> 30 fold	10 to 30 fold
B3	binds	10 to 30 fold	10 to 30 fold
B4	binds	10 to 30 fold	10 to 30 fold
B5	binds	10 to 30 fold	10 to 30 fold
B6	binds	10 to 30 fold	10 to 30 fold
B7	binds	> 30 fold	10 to 30 fold
B8	binds	2 to 10 fold	10 to 30 fold
B9	binds	2 to 10 fold	2 to 10 fold
B10	binds	> 30 fold	> 30 fold
B11	binds	10 to 30 fold	> 30 fold
B12	binds	10 to 30 fold	10 to 30 fold
B13	binds	> 30 fold	> 30 fold
B14	binds	10 to 30 fold	10 to 30 fold
B15	binds	> 30 fold	> 30 fold
B16	binds	2 to 10 fold	2 to 10 fold
B17	binds	10 to 30 fold	> 30 fold
B18	binds	2 to 10 fold	2 to 10 fold
B19	binds	2 to 10 fold	2 to 10 fold
